In assay [1] the target is human neutrophil elastase (HNE) (human) (UniProt P08246). Description: cell-based or functional assay.
For assay [2], the target named is human plasma kallikrein (PK) (human) (UniProt P03952). Nature of the assay: cell-based or functional assay.
Sequence of human plasma kallikrein (PK) (human) (P03952 20-638 limits assumed): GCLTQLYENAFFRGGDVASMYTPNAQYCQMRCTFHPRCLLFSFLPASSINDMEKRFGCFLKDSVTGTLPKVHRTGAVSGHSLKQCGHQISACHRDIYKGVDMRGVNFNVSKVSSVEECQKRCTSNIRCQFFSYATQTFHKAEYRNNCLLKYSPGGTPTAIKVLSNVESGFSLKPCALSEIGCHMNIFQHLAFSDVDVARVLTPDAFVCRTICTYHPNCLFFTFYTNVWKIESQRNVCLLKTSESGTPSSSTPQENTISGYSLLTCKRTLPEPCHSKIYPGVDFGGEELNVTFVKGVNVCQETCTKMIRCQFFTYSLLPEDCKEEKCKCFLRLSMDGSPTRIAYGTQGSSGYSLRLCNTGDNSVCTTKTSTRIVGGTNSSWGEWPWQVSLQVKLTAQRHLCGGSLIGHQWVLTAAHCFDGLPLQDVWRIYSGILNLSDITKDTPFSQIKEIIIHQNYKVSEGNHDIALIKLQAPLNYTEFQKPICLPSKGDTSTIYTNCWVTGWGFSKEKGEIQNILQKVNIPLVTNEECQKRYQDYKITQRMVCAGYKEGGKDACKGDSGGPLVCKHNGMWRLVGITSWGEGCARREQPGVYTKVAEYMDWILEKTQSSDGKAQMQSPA

Sequence of human neutrophil elastase (HNE) (human) (P08246 30-247 limits assumed): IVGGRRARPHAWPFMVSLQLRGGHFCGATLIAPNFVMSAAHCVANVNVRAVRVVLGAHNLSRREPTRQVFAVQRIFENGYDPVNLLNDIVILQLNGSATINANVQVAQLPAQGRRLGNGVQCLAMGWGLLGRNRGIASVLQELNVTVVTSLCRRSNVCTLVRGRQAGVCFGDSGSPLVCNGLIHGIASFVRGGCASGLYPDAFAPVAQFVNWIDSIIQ

For “rACTWT (recombinant wild type alpha-1-antichymotrypsin) (from UniProt P01011 24-423)”, in assay [1], the % Inhibition is 26%, the INHIBITION % came out at 15% and the Percentage inhibition is 16%. For the same substance, in assay [2], the % Inhibition was found to be 46%, the INHIBITION % was 0% and the Percentage inhibition came out at 46%.

Broadly, the % Inhibition is the change of the read-out against control, counted positive when it falls. Read a low % Inhibition as a weak effect.
